The values below come from article PMC12250083 (International Journal of Molecular Sciences, 2025).

In assay [1] the target is T1, acetone carboxylase (XaAC) (Xanthobacter versatilis, UniProt Q8RM03+Q8RM04, Q8RM03:E89A).
T1 construct: gene acxA; recombinant from E. coli, His-NTA then Q-sepharose; 360 kDa α2β2γ2 heterohexamer with Mn(II); ATP/AMP site in beta subunit, Mn(II) site in alpha subunit; with Acetone carboxylase gamma subunit
In words: differential scanning fluorimetry, SYPRO orange. The format is binding. To be noted: 10 mM AMP; 100 mM Tris, 100 mM KCl, pH 7.6; absolute Tm, not a shift.

Assay [2] addresses T2, acetone carboxylase (XaAC) (Xanthobacter versatilis, UniProt Q8RM03+Q8RM04). As to the kind of experiment: differential scanning fluorimetry, SYPRO orange. Further details: gene acxA; recombinant from E. coli, His-NTA then Q-sepharose; 360 kDa α2β2γ2 heterohexamer with Mn(II); ATP/AMP site in beta subunit, Mn(II) site in alpha subunit; with Acetone carboxylase gamma subunit. To be noted: 10 mM AMP; 100 mM Tris, 100 mM KCl, pH 7.6; absolute Tm, not a shift. The format is binding.

Assay [3] addresses T3, acetone carboxylase (XaAC) (Xanthobacter versatilis, UniProt Q8RM03+Q8RM04, Q8RM03:E89D).
T3 construct: gene acxA; recombinant from E. coli, His-NTA then Q-sepharose; 360 kDa α2β2γ2 heterohexamer with Mn(II); ATP/AMP site in beta subunit, Mn(II) site in alpha subunit; with Acetone carboxylase gamma subunit
In words: X-band EPR of active-site Mn(II). To be noted: 10 mM AMP, 1 mM MgCl2; 50 mM Tris, pH 7.6, 150 mM NaCl; 12 K. Format: binding.

Assay [4] deals with T2, acetone carboxylase (XaAC). More on the design: gene acxA. Conditions: only tested together with AMP (10 mM AMP-acetate), 1 mM MgCl2, pH 7.6; Mn(II) site.
In assay [5] the target is T4, Xanthobacter autotrophicus acetone carboxylase α subunit, αE89A variant (Xanthobacter autotrophicus, UniProt Q8RM03 1-776, αE89A).
T4 construct: acetone carboxylase alpha subunit, Xanthobacter autotrophicus, glutamate 89 substituted by alanine; The PDB entries are of the wild-type parent; also called E89A XaAC; E89A AC; source: E. coli, purified as the complex (His-NTA, Q-sepharose)
T4 sequence: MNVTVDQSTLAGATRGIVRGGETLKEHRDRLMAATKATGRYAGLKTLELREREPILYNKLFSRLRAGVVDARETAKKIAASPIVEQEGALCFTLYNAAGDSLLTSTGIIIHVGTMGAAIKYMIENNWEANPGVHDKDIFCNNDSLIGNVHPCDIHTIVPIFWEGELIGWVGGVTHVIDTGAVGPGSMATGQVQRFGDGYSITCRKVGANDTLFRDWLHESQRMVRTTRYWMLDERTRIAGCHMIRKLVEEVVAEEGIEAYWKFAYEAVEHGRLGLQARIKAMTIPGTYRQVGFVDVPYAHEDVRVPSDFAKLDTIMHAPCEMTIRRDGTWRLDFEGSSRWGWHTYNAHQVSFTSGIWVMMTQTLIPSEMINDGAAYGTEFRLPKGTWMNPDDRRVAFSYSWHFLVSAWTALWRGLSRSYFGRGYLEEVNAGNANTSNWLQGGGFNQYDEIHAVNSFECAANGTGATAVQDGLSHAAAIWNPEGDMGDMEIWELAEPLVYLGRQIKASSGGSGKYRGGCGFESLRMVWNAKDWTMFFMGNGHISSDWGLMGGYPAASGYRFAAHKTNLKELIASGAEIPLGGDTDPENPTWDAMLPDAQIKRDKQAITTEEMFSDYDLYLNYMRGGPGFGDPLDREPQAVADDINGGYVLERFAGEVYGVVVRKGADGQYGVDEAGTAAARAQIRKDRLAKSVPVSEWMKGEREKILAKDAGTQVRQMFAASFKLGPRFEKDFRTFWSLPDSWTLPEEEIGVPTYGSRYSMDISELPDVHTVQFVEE
In words: SEC + native gel or EMSA; complexes co-purified from E. coli lysate (His-NTA, then Q-sepharose), stored in 50 mM Tris pH 7.6, 150 mM NaCl, 10% glycerol, then tested by size exclusion chromatography and native gel for integrity. Conditions: both partners purified. Background: A gel shift assay detects complexes by their altered migration in electrophoresis.

For assay [6], the target named is T5, Xanthobacter autotrophicus acetone carboxylase α subunit (Xanthobacter autotrophicus, UniProt Q8RM03 1-776).
T5 construct: acetone carboxylase alpha subunit, Xanthobacter autotrophicus; holds the Mn(II) site (H150, D153, H175, E89); A His-NTA column was used, so one subunit probably carries a His tag; also called XaAC α; AC alpha subunit; source: E. coli, purified as the complex (His-NTA, Q-sepharose)
T5 sequence: T4 sequence with A89E
The assay is described as above. To be noted: both partners purified.

The target of assay [7] is T6, Xanthobacter autotrophicus acetone carboxylase α subunit, αE89D variant (Xanthobacter autotrophicus, UniProt Q8RM03 1-776, αE89D).
T6 construct: acetone carboxylase alpha subunit, Xanthobacter autotrophicus, glutamate 89 substituted by aspartate; The PDB entries are of the wild-type parent; also called E89D XaAC; E89D AC; source: E. coli, purified as the complex (His-NTA, Q-sepharose)
T6 sequence: T4 sequence with A89D
The description is as above. Conditions: both partners purified.

Positions count from the first letter of the chain named.

T2 sequence (Q8RM03 whole entry, one chain of several): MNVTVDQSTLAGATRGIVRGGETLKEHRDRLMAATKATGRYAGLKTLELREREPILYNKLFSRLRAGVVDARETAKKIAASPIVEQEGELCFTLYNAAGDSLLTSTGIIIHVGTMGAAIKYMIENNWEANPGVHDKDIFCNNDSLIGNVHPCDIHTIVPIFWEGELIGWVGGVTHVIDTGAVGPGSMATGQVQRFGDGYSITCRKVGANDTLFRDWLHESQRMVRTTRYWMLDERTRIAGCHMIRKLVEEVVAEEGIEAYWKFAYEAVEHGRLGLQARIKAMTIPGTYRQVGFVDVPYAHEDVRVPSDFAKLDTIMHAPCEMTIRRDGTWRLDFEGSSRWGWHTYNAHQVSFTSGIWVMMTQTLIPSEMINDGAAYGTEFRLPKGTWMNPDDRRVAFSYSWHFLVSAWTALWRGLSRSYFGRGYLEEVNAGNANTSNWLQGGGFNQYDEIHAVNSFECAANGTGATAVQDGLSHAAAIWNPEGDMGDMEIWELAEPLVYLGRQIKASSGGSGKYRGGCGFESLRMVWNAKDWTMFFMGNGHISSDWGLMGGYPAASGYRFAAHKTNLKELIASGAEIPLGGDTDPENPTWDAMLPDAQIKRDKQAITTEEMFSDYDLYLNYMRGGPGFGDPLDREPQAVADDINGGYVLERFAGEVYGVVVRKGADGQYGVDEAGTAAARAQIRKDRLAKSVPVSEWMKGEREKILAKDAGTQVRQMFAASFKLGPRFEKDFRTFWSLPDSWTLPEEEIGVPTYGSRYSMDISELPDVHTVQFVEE
T3 sequence (Q8RM03 whole entry E89D, one chain of several): as the sequence (Q8RM03 whole entry, one chain of several) above, with E89D counted along it

For `Nc1ncnc2c1ncn2[C@@H]1O[C@H](COP(=O)(O)O)[C@@H](O)[C@H]1O` [AMP], the Tm in assay [1] came out at 76 ± 0.4 °C; in assay [2], 76.5 ± 0.5 °C. The “X-band EPR of active-site Mn(II)” value in assay [3] is “αE89D and the WT AC respond similarly to AMP binding”.
`CC(=O)O` [acetate]: in assay [4], the “peptide-level and intact-protein HDX-MS” value was “when AMP and acetate were both present, seven of the eight peptides displayed opposite exchange patterns”.

B1: Xanthobacter autotrophicus acetone carboxylase β subunit (enzyme)
chain: MNVPVGHLRNVQVLGIDAGGTMTDTFFVDQDGDFVVGKAQSTPQNEALGLIASSEDGLANWGMSLHEALAQLQTGVYSGTAMLNRVVQRKGLKCGLIVNRGMEDFHRMGRAVQSHLGYAYEDRIHLNTHRYDPPLVPRHLTRGVVERTDMIGTQVIPLREDTARDAARDLIAADAEGIVISLLHSYKNPENERRVRDIVLEEVEKSGKKIPVFASADYYPVRKETHRTNTTILEGYAAEPSRQTLSKISNAFKERGTKFDFRVMATHGGTISWKAKELARTIVSGPIGGVIGAKYLGEVLGYKNIACSDIGGTSFDVALITQGEMTIKNDPDMARLVLSLPLVAMDSVGAGAGSFIRLDPYTRAIKLGPDSAGYRVGVCWKESGIETVTISDCHMVLGYLNPDNFLGGAVKLDRQRSVDAIKAQIADPLGLSVEDAAAGVIELLDSDLRDYLRSMISGKGYSPASFVCFSYGGAGPVHTYGYTEGLGFEDVIVPAWAAGFSAFGCAAADFEYRYDKSLDINMPTETPDTDKEKAAATLQAAWEELTKNVLEEFKLNGYSADQVTLQPGYRMQYRGQLNDLEIESPLAQAHTAADWDQLTDAFNATYGRVYAASARSPELGYSVTGAIMRGMVPIPKPKIPKEPEEGETPPESAKIGTRKFYRKKRWVDAQLYHMESLRPGNRVMGPAVIESDATTFVVPDGFETWLDGHRLFHLREV
notes: acetone carboxylase beta subunit, Xanthobacter autotrophicus; also called XaAC β; AC beta subunit; source: E. coli, purified as the complex (His-NTA, Q-sepharose)
As for B1, the binding result in assay [5], in assay [6] and in assay [7] was “binds” each time.

B2: Xanthobacter autotrophicus acetone carboxylase γ subunit (enzyme)
chain: MAYTRSKIVDLVDGKIDPDTLHQMLSTPKDPERFVTYVEILQERMPWDDKIILPLGPKLFIVQQKVSKKWTVRCECGHDFCDWKDNWKLSARVHVRDTPQKMEEIYPRLMAPTPSWQVIREYFCPECGTLHDVEAPTPWYPVIHDFSPDIEGFYQEWLGLPVPERADA
notes: acetone carboxylase gamma subunit, Xanthobacter autotrophicus; also called XaAC γ; AC gamma subunit; source: E. coli, purified as the complex (His-NTA, Q-sepharose)
With B2, the binding result in assay [5], in assay [6] and in assay [7] was “binds” in each case.
